Experimental data: patent US20150344570A1 (published 2015)

T1: FcγRIIb extracellular domain with C-terminal His tag (human, UniProt P31994 43-217)
T1 construct: extracellular domain; also called 2b; FcgRIIb
T1 sequence (looked up): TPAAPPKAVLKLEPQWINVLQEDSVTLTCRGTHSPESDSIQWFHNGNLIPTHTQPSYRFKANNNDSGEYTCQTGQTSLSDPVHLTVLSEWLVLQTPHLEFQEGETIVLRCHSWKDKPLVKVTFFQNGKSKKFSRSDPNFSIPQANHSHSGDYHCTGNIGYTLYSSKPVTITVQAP


Experiments:
[1] = biological target: T2, FcγRIIIa extracellular domain with C-terminal His tag (human, UniProt P08637 17-208); experiment: SPR, binding relative to GpH7-A5/GpH7-B3/GpL16-k0 = 100
T2 construct: extracellular domain; also called 3a; FcgRIIIa
Experimental: (§1) The heterodimerized antibodies He Abs in which one of the H chains was introduced with an alteration were assayed for their binding activities to each activating FcγR and inhibitory FcγR according to the method described in Example 4. […] The activating FcγRs in FIGS. 26, 27, 28, and 29 are FcγRIa, FcγRIIa (R), FcγRIIa (H), and FcγRIIIa, respectively.
(§2) Analysis of interaction between objective antibody and the FcγR was carried out using Biacore T100 (GE Healthcare). HBS-EP+ (GE Healthcare) was used as the running buffer, and the measurement temperature was set to 25° C. Chips produced by immobilizing the antigen peptide by the amine coupling method to a Series S Sencor Chip CM5 (GE Healthcare), or alternatively, chips produced by allowing preliminarily biotinylated antigen peptides to interact with and immobilize onto a Series S Sensor Chip SA (certified) (GE Healthcare) were used. Antibodies of interest were captured onto an antigen peptide-immobilized chip, and allowed to interact to each FcγR diluted with running buffer. To regenerate and repeatedly use the chip, the antibodies captured on the chip were washed off by reacting 10 mM glycine-HCl, pH 1.5.

[2] = biological target: T1, FcγRIIb extracellular domain with …; experiment: as above
Experimental: as §1, §2

T2 sequence (P08637 17-208): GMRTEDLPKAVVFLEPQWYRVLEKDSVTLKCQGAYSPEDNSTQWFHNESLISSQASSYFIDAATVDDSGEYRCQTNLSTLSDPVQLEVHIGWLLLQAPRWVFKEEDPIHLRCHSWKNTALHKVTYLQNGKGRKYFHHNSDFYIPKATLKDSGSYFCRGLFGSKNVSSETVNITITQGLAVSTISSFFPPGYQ

He/Con_3a [1]	He/Con_2b [2]	Binder
103 % of control	83.3 % of control	GpH7-A5/GpH7-B3 variant E333_16H/GpL16-k0 (antibody, human IgG1, kappa, also called He Ab) heavy 1: not shown heavy 2: not shown light: DIVMTQSPLSLPVTPGEPASISCQASESLVHSNRNTYLHWYLQKPGQSPQLLIYKVSNRFSGVPDRFSGSGSGTDFTLKISRVEAEDVGVYYCSQNTHVPPTFGQGTKVEIERTVAAPSVFIFPPSDEQLKSGTASVVCLLNNFYPREAKVQWKVDNALQSGNSQESVTEQDSKDSTYSLSSTLTLSKADYEKHKVYACEVTHQGLSSPVTKSFNRGEC
111 % of control	87.1 % of control	GpH7-A5/GpH7-B3 variant I332_01G/GpL16-k0 (antibody, human IgG1, kappa, also called He Ab) heavy 1: not shown heavy 2: not shown light: DIVMTQSPLSLPVTPGEPASISCQASESLVHSNRNTYLHWYLQKPGQSPQLLIYKVSNRFSGVPDRFSGSGSGTDFTLKISRVEAEDVGVYYCSQNTHVPPTFGQGTKVEIERTVAAPSVFIFPPSDEQLKSGTASVVCLLNNFYPREAKVQWKVDNALQSGNSQESVTEQDSKDSTYSLSSTLTLSKADYEKHKVYACEVTHQGLSSPVTKSFNRGEC
110 % of control	94.3 % of control	GpH7-A5/GpH7-B3 variant I332_19Q/GpL16-k0 (antibody, human IgG1, kappa, also called He Ab) heavy 1: not shown heavy 2: not shown light: DIVMTQSPLSLPVTPGEPASISCQASESLVHSNRNTYLHWYLQKPGQSPQLLIYKVSNRFSGVPDRFSGSGSGTDFTLKISRVEAEDVGVYYCSQNTHVPPTFGQGTKVEIERTVAAPSVFIFPPSDEQLKSGTASVVCLLNNFYPREAKVQWKVDNALQSGNSQESVTEQDSKDSTYSLSSTLTLSKADYEKHKVYACEVTHQGLSSPVTKSFNRGEC
104 % of control	98.4 % of control	GpH7-A5/GpH7-B3 variant I332_13S/GpL16-k0 (antibody, human IgG1, kappa, also called He Ab) heavy 1: not shown heavy 2: not shown light: DIVMTQSPLSLPVTPGEPASISCQASESLVHSNRNTYLHWYLQKPGQSPQLLIYKVSNRFSGVPDRFSGSGSGTDFTLKISRVEAEDVGVYYCSQNTHVPPTFGQGTKVEIERTVAAPSVFIFPPSDEQLKSGTASVVCLLNNFYPREAKVQWKVDNALQSGNSQESVTEQDSKDSTYSLSSTLTLSKADYEKHKVYACEVTHQGLSSPVTKSFNRGEC
101 % of control	89.5 % of control	GpH7-A5/GpH7-B3 variant E333_20W/GpL16-k0 (antibody, human IgG1, kappa, also called He Ab) heavy 1: not shown heavy 2: not shown light: DIVMTQSPLSLPVTPGEPASISCQASESLVHSNRNTYLHWYLQKPGQSPQLLIYKVSNRFSGVPDRFSGSGSGTDFTLKISRVEAEDVGVYYCSQNTHVPPTFGQGTKVEIERTVAAPSVFIFPPSDEQLKSGTASVVCLLNNFYPREAKVQWKVDNALQSGNSQESVTEQDSKDSTYSLSSTLTLSKADYEKHKVYACEVTHQGLSSPVTKSFNRGEC
106 % of control	92.1 % of control	GpH7-A5/GpH7-B3 variant I336_09D/GpL16-k0 (antibody, human IgG1, kappa, also called He Ab) heavy 1: not shown heavy 2: not shown light: DIVMTQSPLSLPVTPGEPASISCQASESLVHSNRNTYLHWYLQKPGQSPQLLIYKVSNRFSGVPDRFSGSGSGTDFTLKISRVEAEDVGVYYCSQNTHVPPTFGQGTKVEIERTVAAPSVFIFPPSDEQLKSGTASVVCLLNNFYPREAKVQWKVDNALQSGNSQESVTEQDSKDSTYSLSSTLTLSKADYEKHKVYACEVTHQGLSSPVTKSFNRGEC
112 % of control	90.3 % of control	GpH7-A5/GpH7-B3 variant I336_03V/GpL16-k0 (antibody, human IgG1, kappa, also called He Ab) heavy 1: not shown heavy 2: not shown light: DIVMTQSPLSLPVTPGEPASISCQASESLVHSNRNTYLHWYLQKPGQSPQLLIYKVSNRFSGVPDRFSGSGSGTDFTLKISRVEAEDVGVYYCSQNTHVPPTFGQGTKVEIERTVAAPSVFIFPPSDEQLKSGTASVVCLLNNFYPREAKVQWKVDNALQSGNSQESVTEQDSKDSTYSLSSTLTLSKADYEKHKVYACEVTHQGLSSPVTKSFNRGEC
111 % of control	84.9 % of control	GpH7-A5/GpH7-B3 variant I336_02A/GpL16-k0 (antibody, human IgG1, kappa, also called He Ab) heavy 1: not shown heavy 2: not shown light: DIVMTQSPLSLPVTPGEPASISCQASESLVHSNRNTYLHWYLQKPGQSPQLLIYKVSNRFSGVPDRFSGSGSGTDFTLKISRVEAEDVGVYYCSQNTHVPPTFGQGTKVEIERTVAAPSVFIFPPSDEQLKSGTASVVCLLNNFYPREAKVQWKVDNALQSGNSQESVTEQDSKDSTYSLSSTLTLSKADYEKHKVYACEVTHQGLSSPVTKSFNRGEC
